Results taken from patent US20030232387A1.

Biological target: mutant αEβ7 integrin, αE ΔE163-E180, on transfected K562 cells (human) (UniProt P38570)
Test: flow cytometry on K562 cells expressing mutant αEβ7

mutant αEβ7 integrin, αE ΔE163-E180, on transfected K562 cells (human), sequence (P38570 other isoform, or with tags, fused parts or gaps mutant, chain 1 of 2): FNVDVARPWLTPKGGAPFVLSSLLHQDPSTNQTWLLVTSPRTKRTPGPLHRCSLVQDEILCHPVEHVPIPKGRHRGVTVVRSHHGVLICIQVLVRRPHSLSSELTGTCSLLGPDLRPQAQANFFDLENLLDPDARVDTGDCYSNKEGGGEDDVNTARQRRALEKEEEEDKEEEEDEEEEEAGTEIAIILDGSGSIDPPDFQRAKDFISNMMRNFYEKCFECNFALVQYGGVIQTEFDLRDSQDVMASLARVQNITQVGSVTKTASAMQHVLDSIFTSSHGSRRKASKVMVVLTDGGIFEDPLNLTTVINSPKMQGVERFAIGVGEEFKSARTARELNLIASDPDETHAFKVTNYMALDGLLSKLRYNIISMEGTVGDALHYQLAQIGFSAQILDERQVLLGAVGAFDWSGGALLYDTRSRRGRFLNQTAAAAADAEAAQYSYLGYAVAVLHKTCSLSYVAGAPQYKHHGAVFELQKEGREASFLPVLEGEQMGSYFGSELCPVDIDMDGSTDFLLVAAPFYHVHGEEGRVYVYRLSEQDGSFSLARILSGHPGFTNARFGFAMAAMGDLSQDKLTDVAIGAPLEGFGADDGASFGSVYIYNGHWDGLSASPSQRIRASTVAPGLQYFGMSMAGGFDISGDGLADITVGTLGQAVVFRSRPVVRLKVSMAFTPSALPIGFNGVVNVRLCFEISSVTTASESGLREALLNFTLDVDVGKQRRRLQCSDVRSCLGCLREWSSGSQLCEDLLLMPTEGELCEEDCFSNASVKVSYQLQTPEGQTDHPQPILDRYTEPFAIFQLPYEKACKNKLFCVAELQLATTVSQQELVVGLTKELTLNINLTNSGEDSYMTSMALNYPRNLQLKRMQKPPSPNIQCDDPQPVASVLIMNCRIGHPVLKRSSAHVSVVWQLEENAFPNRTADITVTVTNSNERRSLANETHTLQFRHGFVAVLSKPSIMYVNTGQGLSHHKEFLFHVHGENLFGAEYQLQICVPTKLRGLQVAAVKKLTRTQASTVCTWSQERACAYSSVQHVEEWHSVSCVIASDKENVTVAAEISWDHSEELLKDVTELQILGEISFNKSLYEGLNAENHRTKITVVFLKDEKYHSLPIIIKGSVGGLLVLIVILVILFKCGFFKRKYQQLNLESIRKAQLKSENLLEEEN
mutant αEβ7 integrin, αE ΔE163-E180, on transfected K562 cells (human), sequence (chain, as listed by the source mutant, chain 2 of 2): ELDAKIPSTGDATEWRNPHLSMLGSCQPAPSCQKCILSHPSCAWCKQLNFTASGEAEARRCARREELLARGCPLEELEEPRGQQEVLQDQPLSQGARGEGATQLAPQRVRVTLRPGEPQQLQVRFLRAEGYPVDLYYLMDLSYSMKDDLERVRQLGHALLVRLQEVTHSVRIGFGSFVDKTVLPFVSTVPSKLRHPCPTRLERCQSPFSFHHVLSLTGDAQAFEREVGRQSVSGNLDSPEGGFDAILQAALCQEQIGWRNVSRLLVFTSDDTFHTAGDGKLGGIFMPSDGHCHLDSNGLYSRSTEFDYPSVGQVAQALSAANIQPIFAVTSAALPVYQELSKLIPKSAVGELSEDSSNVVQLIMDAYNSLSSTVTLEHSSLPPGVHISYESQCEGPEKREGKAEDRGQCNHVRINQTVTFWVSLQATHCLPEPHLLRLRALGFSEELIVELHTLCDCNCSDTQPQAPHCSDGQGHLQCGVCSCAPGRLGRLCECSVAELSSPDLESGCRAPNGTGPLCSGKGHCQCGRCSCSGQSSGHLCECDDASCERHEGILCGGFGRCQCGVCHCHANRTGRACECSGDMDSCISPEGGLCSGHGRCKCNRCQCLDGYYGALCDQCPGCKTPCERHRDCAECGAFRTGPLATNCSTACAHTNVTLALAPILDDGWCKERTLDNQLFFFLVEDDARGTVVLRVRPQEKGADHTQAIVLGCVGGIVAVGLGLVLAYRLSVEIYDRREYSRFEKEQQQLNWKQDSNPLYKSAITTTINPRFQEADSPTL

% Control Staining: 25%
B1: mAb 5E4 (antibody, V domains shown)
VH: EVQLVESGGGLVQPGGSLRLSCAASGFTFSNFWMSWVRQAPGKGLEWMANIKQDGSEKYYVDSVKGRFTISRDNAKSSLFLQMNSLRVDDTAVYFCAGDYYDSGSFYWGQGTLVTVSS
VL: EIVLTQSPATLSLSPGERATLSCRASQSVRSNLAWYQQKPGQAPRLLIYDASNRAIGIPARFSGSGSGTDFTLTISSLEPEDFVVYYCQQRSNWPPWTFGQGTKVEIK
